Experimental data published in publication PMC9482650, “Quantitative fragmentomics allow affinity mapping of interactomes” (Nature Communications, 2022).

Tests used:
Test in all cases: holdup assay
Design in all cases: key: below the threshold = too weak to quantify, mostly under pKd 3.1 to 4
Settings in all cases: plain residues with an end cap or a label only (N-terminal biotin on a linker: ado-ado)
SNX27, Q96L92 = molecular target: SNX27, Q96L92
PCLO, Q9Y6V0 = molecular target: T1, PCLO, Q9Y6V0
T1 sequence (Q9Y6V0 4491-4600, limits assumed, looked up): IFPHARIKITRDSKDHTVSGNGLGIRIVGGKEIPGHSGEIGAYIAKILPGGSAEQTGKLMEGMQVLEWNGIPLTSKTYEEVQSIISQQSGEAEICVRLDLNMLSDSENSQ

TIAM2, Q8IVF5 = molecular target: T2, TIAM2, Q8IVF5
T2 sequence (Q8IVF5 885-986, limits assumed, looked up): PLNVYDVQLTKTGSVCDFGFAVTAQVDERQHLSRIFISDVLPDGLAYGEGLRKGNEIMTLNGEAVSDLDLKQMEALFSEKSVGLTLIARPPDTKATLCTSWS

DLG5_1, Q8TDM6 = molecular target: DLG5_1, Q8TDM6
MPP2, Q14168 = molecular target: T3, MPP2, Q14168
T3 sequence (Q14168 180-250, limits assumed, looked up): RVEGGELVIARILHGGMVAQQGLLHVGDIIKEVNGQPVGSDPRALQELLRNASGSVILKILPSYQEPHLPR

TX1BP3, O14907 = molecular target: T4, TX1BP3, O14907
T4 sequence (O14907 10-122, limits assumed, looked up): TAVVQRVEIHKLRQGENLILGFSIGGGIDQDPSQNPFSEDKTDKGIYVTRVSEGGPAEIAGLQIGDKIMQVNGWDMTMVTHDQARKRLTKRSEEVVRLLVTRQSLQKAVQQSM

Inadl_3, Q8NI35 = molecular target: Inadl_3, Q8NI35
PDZD2_2, O15018 = molecular target: T5, PDZD2_2, O15018
T5 sequence (O15018 329-429, limits assumed, looked up): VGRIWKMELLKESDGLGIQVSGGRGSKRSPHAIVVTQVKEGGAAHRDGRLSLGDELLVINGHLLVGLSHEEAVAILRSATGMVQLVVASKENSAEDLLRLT

GIPC2, Q8TF65 = molecular target: GIPC2, Q8TF65
FRMPD1, Q5SYB0 = molecular target: T6, FRMPD1, Q5SYB0
T6 sequence (Q5SYB0 52-145, limits assumed, looked up): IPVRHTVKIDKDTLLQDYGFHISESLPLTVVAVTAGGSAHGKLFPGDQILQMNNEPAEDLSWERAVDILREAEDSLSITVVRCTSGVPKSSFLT

PTPN13_1, Q12923 = molecular target: T7, PTPN13_1, Q12923
T7 sequence (Q12923 1088-1188, limits assumed, looked up): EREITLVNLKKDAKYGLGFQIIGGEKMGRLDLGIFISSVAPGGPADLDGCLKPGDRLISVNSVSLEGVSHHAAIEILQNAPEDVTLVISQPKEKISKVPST

PDZRN3_1, Q9UPQ7 = molecular target: T8, PDZRN3_1, Q9UPQ7
T8 sequence (Q9UPQ7 244-349, limits assumed, looked up): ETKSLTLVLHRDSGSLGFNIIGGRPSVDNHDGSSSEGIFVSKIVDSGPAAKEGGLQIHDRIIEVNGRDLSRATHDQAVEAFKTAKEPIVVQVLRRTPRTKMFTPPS

CASK, O14936 = molecular target: CASK, O14936
SYNJ2BP, P57105 = molecular target: T9, SYNJ2BP, P57105
T9 sequence (P57105 8-110, limits assumed, looked up): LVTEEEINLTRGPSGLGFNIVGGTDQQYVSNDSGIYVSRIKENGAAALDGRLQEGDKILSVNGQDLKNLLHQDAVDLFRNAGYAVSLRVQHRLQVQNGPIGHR

SNTG1, Q9NSN8 = molecular target: T10, SNTG1, Q9NSN8
T10 sequence (Q9NSN8 52-150, limits assumed, looked up): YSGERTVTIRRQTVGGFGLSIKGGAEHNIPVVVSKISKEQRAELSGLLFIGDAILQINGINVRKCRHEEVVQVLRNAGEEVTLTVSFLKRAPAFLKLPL

GRIP2_6, Q9C0E4 = molecular target: GRIP2_6, Q9C0E4
LRRC7, Q96NW7 = molecular target: T11, LRRC7, Q96NW7
T11 sequence (Q96NW7 1440-1537, limits assumed, looked up): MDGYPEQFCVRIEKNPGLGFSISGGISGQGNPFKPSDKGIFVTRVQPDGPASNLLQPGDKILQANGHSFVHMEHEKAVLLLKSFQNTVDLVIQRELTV

DFNB31_1, Q9P202 = molecular target: T12, DFNB31_1, Q9P202
T12 sequence (Q9P202 135-233, limits assumed, looked up): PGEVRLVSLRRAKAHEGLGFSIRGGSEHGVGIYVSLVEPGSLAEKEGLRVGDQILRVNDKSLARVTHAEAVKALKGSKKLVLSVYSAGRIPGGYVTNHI

FRMPD4, Q14CM0 = molecular target: FRMPD4, Q14CM0
DFNB31_2, Q9P202 = molecular target: T13, DFNB31_2, Q9P202
T13 sequence (Q9P202 274-371, limits assumed, looked up): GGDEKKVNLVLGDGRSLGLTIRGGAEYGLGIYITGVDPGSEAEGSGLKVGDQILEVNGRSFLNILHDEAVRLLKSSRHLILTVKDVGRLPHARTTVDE

FRMPD2_3, Q68DX3 = molecular target: FRMPD2_3, Q68DX3
GRIP1_2, Q9Y3R0 = molecular target: T14, GRIP1_2, Q9Y3R0
T14 sequence (Q9Y3R0 145-248, limits assumed, looked up): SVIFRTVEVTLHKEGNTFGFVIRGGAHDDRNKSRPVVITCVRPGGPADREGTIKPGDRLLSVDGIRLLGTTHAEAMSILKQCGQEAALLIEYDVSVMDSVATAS

MAGI1_2, Q96QZ7 = molecular target: MAGI1_2, Q96QZ7
Sequence of MAGI1_2, Q96QZ7 (Q96QZ7 456-580): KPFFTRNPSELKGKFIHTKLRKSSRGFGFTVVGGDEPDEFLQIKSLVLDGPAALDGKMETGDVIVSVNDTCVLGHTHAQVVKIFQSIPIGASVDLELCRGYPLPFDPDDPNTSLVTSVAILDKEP

Sequence of FRMPD4, Q14CM0 (Q14CM0 67-160): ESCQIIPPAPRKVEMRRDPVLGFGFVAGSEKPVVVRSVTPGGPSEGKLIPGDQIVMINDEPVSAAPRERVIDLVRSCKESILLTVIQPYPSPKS
Sequence of FRMPD2_3, Q68DX3 (Q68DX3 1073-1166): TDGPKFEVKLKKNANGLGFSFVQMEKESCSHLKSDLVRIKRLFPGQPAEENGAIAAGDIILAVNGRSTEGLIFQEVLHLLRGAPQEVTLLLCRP
Sequence of Inadl_3, Q8NI35 (Q8NI35 359-469): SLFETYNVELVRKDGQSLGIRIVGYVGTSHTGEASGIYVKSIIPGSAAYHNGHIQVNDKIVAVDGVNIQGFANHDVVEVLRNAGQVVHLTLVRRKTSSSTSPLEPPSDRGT
Sequence of GRIP2_6, Q9C0E4 (Q9C0E4 648-740): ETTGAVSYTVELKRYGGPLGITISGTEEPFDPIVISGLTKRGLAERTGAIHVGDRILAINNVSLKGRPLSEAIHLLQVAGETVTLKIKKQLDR
Sequence of GIPC2, Q8TF65 (Q8TF65 112-203): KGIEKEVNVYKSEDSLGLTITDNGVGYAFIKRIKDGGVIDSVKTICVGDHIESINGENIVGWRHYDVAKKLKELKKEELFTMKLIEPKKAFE
Sequence of DLG5_1, Q8TDM6 (Q8TDM6 617-713): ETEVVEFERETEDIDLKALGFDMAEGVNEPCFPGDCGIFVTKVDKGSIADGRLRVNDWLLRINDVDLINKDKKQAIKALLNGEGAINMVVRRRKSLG
Sequence of CASK, O14936 (O14936 487-570): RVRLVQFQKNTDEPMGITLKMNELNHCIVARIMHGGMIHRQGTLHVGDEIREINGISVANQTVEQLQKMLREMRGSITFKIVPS

pKd (SNX27, Q96L92)	pKd (PCLO, Q9Y6V0)	pKd (TIAM2, Q8IVF5)	pKd (DLG5_1, Q8TDM6)	pKd (MPP2, Q14168)	pKd (TX1BP3, O14907)	pKd (Inadl_3, Q8NI35)	pKd (PDZD2_2, O15018)	pKd (GIPC2, Q8TF65)	pKd (FRMPD1, Q5SYB0)	pKd (PTPN13_1, Q12923)	pKd (PDZRN3_1, Q9UPQ7)	pKd (CASK, O14936)	pKd (SYNJ2BP, P57105)	pKd (SNTG1, Q9NSN8)	pKd (GRIP2_6, Q9C0E4)	pKd (LRRC7, Q96NW7)	pKd (DFNB31_1, Q9P202)	pKd (FRMPD4, Q14CM0)	pKd (DFNB31_2, Q9P202)	Binder	further results
3.84	below the threshold	below the threshold	below the threshold	below the threshold	3.51	below the threshold	4.4	below the threshold	below the threshold	below the threshold	below the threshold	below the threshold	4.24	3.48	3.49	below the threshold	below the threshold	below the threshold	below the threshold	QNRIITKTDV [SMCHD1, A6NHR9]	pKd (FRMPD2_3, Q68DX3): below the threshold; pKd (GRIP1_2, Q9Y3R0): below the threshold; pKd (MAGI1_2, Q96QZ7): 3.99
3.97	below the threshold	below the threshold	below the threshold	below the threshold	below the threshold	below the threshold	4.23	below the threshold	below the threshold	below the threshold	below the threshold	below the threshold	below the threshold	4.04	below the threshold	below the threshold	3.59	below the threshold	below the threshold	YPKQMPLSQV [FZD8, Q9H461]	pKd (FRMPD2_3, Q68DX3): below the threshold; pKd (GRIP1_2, Q9Y3R0): below the threshold; pKd (MAGI1_2, Q96QZ7): 3.55

More lines, now with the values behind:

Binder	pKd (SNX27, Q96L92)	pKd (PCLO, Q9Y6V0)	pKd (TIAM2, Q8IVF5)	pKd (DLG5_1, Q8TDM6)	pKd (MPP2, Q14168)	pKd (TX1BP3, O14907)	pKd (Inadl_3, Q8NI35)	pKd (PDZD2_2, O15018)	pKd (GIPC2, Q8TF65)	pKd (FRMPD1, Q5SYB0)	pKd (PTPN13_1, Q12923)	pKd (PDZRN3_1, Q9UPQ7)	pKd (CASK, O14936)	pKd (SYNJ2BP, P57105)	pKd (SNTG1, Q9NSN8)	pKd (GRIP2_6, Q9C0E4)	pKd (LRRC7, Q96NW7)	pKd (DFNB31_1, Q9P202)	pKd (FRMPD4, Q14CM0)	pKd (DFNB31_2, Q9P202)	further results
QYPGSPDSWV [PKP4, Q99569]	4.72	below the threshold	below the threshold	below the threshold	below the threshold	4.98	3.63	6.06	3.5	below the threshold	below the threshold	3.77	3.74	4.94	4.57	3.51	4.97	4.28	3.53	3.62	pKd (FRMPD2_3, Q68DX3): below the threshold; pKd (GRIP1_2, Q9Y3R0): below the threshold; pKd (MAGI1_2, Q96QZ7): 3.48
GDGLDDEIAV [NOS1AP, O75052]	4.19	below the threshold	3.8	below the threshold	below the threshold	below the threshold	below the threshold	3.55	below the threshold	below the threshold	below the threshold	below the threshold	below the threshold	below the threshold	below the threshold	below the threshold	below the threshold	below the threshold	4.43	below the threshold	pKd (FRMPD2_3, Q68DX3): 3.82; pKd (GRIP1_2, Q9Y3R0): below the threshold; pKd (MAGI1_2, Q96QZ7): below the threshold
DFRHKSSFVI [JAM3, Q9BX67]	below the threshold	below the threshold	4.02	below the threshold	3.67	below the threshold	4.26	below the threshold	below the threshold	below the threshold	below the threshold	below the threshold	below the threshold	below the threshold	below the threshold	4.05	below the threshold	below the threshold	below the threshold	below the threshold	pKd (FRMPD2_3, Q68DX3): below the threshold; pKd (GRIP1_2, Q9Y3R0): below the threshold; pKd (MAGI1_2, Q96QZ7): below the threshold
LGHTPFVDEL [UQCRC2, P22695]	3.99	below the threshold	below the threshold	below the threshold	below the threshold	below the threshold	3.59	below the threshold	below the threshold	below the threshold	below the threshold	below the threshold	below the threshold	4	below the threshold	below the threshold	below the threshold	3.5	3.77	below the threshold	pKd (FRMPD2_3, Q68DX3): below the threshold; pKd (GRIP1_2, Q9Y3R0): below the threshold; pKd (MAGI1_2, Q96QZ7): below the threshold
